# Target: C-terminal hydrophilic (cytoplasmic) domain of non-structural protein 4 from mouse hepatitis virus strain A59, wild type (mouse hepatitis virus strain A59)
# Assay: SEC; Superdex75, 50 mM Tris-Cl pH 8.5, 300 mM NaCl (legend: 150 mM NaCl), no reducing agent, 0.5 mL/min; calibrated with marker proteins
substance,measurement,value
"C-terminal hydrophilic (cytoplasmic) domain of non-structural protein 4 from mouse hepatitis virus strain A59, wild type (domain or fragment)",stoichiometry N,2
